Assay results: the Human Domainome abundance scans (Beltran et al. 2025)
± gives the uncertainty stated by the source.

B1: Proto-oncogene vav, residues 782 to 842; numbered along this chain, P15498 (parent)
chain: KYFGTAKARYDFCARDRSELSLKEGDIIKILNKKGQQGWWRGEIYGRVGWFPANYVEEDYS

Variants of: B1
Assay: abundance fitness (aPCA) (normalised: wild type 0, dead -1); higher = more abundant; growth selection in yeast, the domain comes from the species named
Details: Homo sapiens

Question: For KYFGTAKARYDFCARDRSELSLKEGDIIKILNKKGQQGWWRGEIYGRVQWFPANYVEEDYS [G49Q], which abundance fitness is on record?
Answer: -0.838 ± 0.29

Question: With KYFGTAKARYDFCARDRSELSLKEGDIIKILNKKGQQGWWRGEIYGRVCWFPANYVEEDYS [G49C] as the variant, how does the abundance fitness read?
Answer: -0.83 ± 0.49

Question: With KYFGTAKARYDFCARDRSELSLKEGDIIKILNKKGQQGWWRGEIYGRVAWFPANYVEEDYS [G49A] as the variant, how does the abundance fitness read?
Answer: -0.433 ± 0.2

Question: With KYFGTAKARYDFCARDRSELSLKEGDIIKILNKKGQQGWWRGEIYGRVMWFPANYVEEDYS [G49M] as the variant, how does the abundance fitness read?
Answer: -0.907 ± 0.45

Question: For KYFGTAKARYDFCARDRSELSLKEGDIIKILNKKGQQGWWRGEIYGRVDWFPANYVEEDYS [G49D], which abundance fitness is on record?
Answer: -0.956 ± 0.33

Question: For KYFGTAKARYDFCARDRSELSLKEGDIIKILNKKGQQGWWRGEIYGRVFWFPANYVEEDYS [G49F], which abundance fitness is on record?
Answer: -0.87 ± 0.26

Question: Which abundance fitness does the source give for KYFGTAKARYDFCARDRSELSLKEGDIIKILNKKGQQGWWRGEIYGRVNWFPANYVEEDYS [G49N] here?
Answer: -0.956 ± 0.41

Question: For KYFGTAKARYDFCARDRSELSLKEGDIIKILNKKGQQGWWRGEIYGRVPWFPANYVEEDYS [G49P], which abundance fitness is on record?
Answer: -0.776 ± 0.2

Question: Which abundance fitness does the source give for KYFGTAKARYDFCARDRSELSLKEGDIIKILNKKGQQGWWRGEIYGRVRWFPANYVEEDYS [G49R] here?
Answer: -0.998 ± 0.27

Question: Which abundance fitness does the source give for KYFGTAKARYDFCARDRSELSLKEGDIIKILNKKGQQGWWRGEIYGRVTWFPANYVEEDYS [G49T] here?
Answer: -0.506 ± 0.19

Question: Which abundance fitness does the source give for KYFGTAKARYDFCARDRSELSLKEGDIIKILNKKGQQGWWRGEIYGRVKWFPANYVEEDYS [G49K] here?
Answer: -0.92 ± 0.36

Question: Which abundance fitness does the source give for KYFGTAKARYDFCARDRSELSLKEGDIIKILNKKGQQGWWRGEIYGRVLWFPANYVEEDYS [G49L] here?
Answer: -1.01 ± 0.29

Question: For KYFGTAKARYDFCARDRSELSLKEGDIIKILNKKGQQGWWRGEIYLRVGWFPANYVEEDYS [G46L], which abundance fitness is on record?
Answer: -0.67 ± 0.07

Question: With KYFGTAKARYDFCARDRSELSLKEGDIIKILNKKGQQGWWRGEIYHRVGWFPANYVEEDYS [G46H] as the variant, how does the abundance fitness read?
Answer: -0.672 ± 0.16

Question: Which abundance fitness does the source give for KYFGTAKARYDFCARDRSELSLKEGDIIKILNKKGQQGWWRGEIYDRVGWFPANYVEEDYS [G46D] here?
Answer: -0.19 ± 0.098

Question: With KYFGTAKARYDFCARDRSELSLKEGDIIKILNKKGQQGWWRGEIYFRVGWFPANYVEEDYS [G46F] as the variant, how does the abundance fitness read?
Answer: -0.942 ± 0.14

Question: With KYFGTAKARYDFCARDRSELSLKEGDIIKILNKKGQQGWWRGEIYERVGWFPANYVEEDYS [G46E] as the variant, how does the abundance fitness read?
Answer: -0.311 ± 0.063

Question: Which abundance fitness does the source give for KYFGTAKARYDFCARDRSELSLKEGDIIKILNKKGQQGWWRGEIYVRVGWFPANYVEEDYS [G46V] here?
Answer: -0.748 ± 0.073

Question: With KYFGTAKARYDFCARDRSELSLKEGDIIKILNKKGQQGWWRGEIYKRVGWFPANYVEEDYS [G46K] as the variant, how does the abundance fitness read?
Answer: -0.516 ± 0.12

Question: For KYFGTAKARYDFCARDRSELSLKEGDIIKILNKKGQQGWWRGEIYQRVGWFPANYVEEDYS [G46Q], which abundance fitness is on record?
Answer: -0.291 ± 0.082

Question: With KYFGTAKARYDFCARDRSELSLKEGDIIKILNKKGQQGWWRGEIYRRVGWFPANYVEEDYS [G46R] as the variant, how does the abundance fitness read?
Answer: -0.671 ± 0.061

Question: For KYFGTAKARYDFCARDRSELSLKEGDIIKILNKKGQQGWWRGEIYSRVGWFPANYVEEDYS [G46S], which abundance fitness is on record?
Answer: -0.343 ± 0.067

Question: For KYFGTAKARYDFCARDRSELSLKEGDIIKILNKKGQQGWWRGEIYCRVGWFPANYVEEDYS [G46C], which abundance fitness is on record?
Answer: -0.784 ± 0.17

Question: For KYFGTAKARYDFCARDRSELSLKEGDIIKILNKKGQQGWWRGEIYNRVGWFPANYVEEDYS [G46N], which abundance fitness is on record?
Answer: -0.15 ± 0.098

Question: With KYFGTAKARYDFCARDRSELSLKEGDIIKILNKKGQQGWWRGEIYIRVGWFPANYVEEDYS [G46I] as the variant, how does the abundance fitness read?
Answer: -0.766 ± 0.16

Question: Which abundance fitness does the source give for KYFGTAKARYDFCARDRSELSLKEGDIIKILNKKGQQGWWRGEIYTRVGWFPANYVEEDYS [G46T] here?
Answer: -0.542 ± 0.069

Question: With KYFGTAKARYDFCARDRSELSLKEGDIIKILNKKGQQGWWRGEIYMRVGWFPANYVEEDYS [G46M] as the variant, how does the abundance fitness read?
Answer: -0.896 ± 0.12

Question: Which abundance fitness does the source give for KYFGTAKARYDFCARDRSELSLKEGDIIKILNKKGQQGWWRGEIYARVGWFPANYVEEDYS [G46A] here?
Answer: -0.731 ± 0.09

Question: With KYFGTAKARYDFCARDRSELSLKEGDIIKILNKKGQQGWWRGEIYWRVGWFPANYVEEDYS [G46W] as the variant, how does the abundance fitness read?
Answer: -0.853 ± 0.1

Question: For KYFGTAKARYDFCARDRSELSLKEGDIIKILNKKGQQGWWRGEIYPRVGWFPANYVEEDYS [G46P], which abundance fitness is on record?
Answer: -0.387 ± 0.061

Question: With KYFGTAKARYDFCARDRSELSLKEGDIIKILNKKGQQGWWRGEIYYRVGWFPANYVEEDYS [G46Y] as the variant, how does the abundance fitness read?
Answer: -1.01 ± 0.29

Question: With KYFGTAKARYDFCARDRSELSLKEGDIIKILNKKGQQGWWRGEIYGRLGWFPANYVEEDYS [V48L] as the variant, how does the abundance fitness read?
Answer: -0.347 ± 0.086

Question: Which abundance fitness does the source give for KYFGTAKARYDFCARDRSELSLKEGDIIKILNKKGQQGWWRGEIYGRPGWFPANYVEEDYS [V48P] here?
Answer: -0.733 ± 0.12

Question: Which abundance fitness does the source give for KYFGTAKARYDFCARDRSELSLKEGDIIKILNKKGQQGWWRGEIYGRKGWFPANYVEEDYS [V48K] here?
Answer: -0.071 ± 0.1

Question: For KYFGTAKARYDFCARDRSELSLKEGDIIKILNKKGQQGWWRGEIYGRAGWFPANYVEEDYS [V48A], which abundance fitness is on record?
Answer: -0.156 ± 0.045

Question: For KYFGTAKARYDFCARDRSELSLKEGDIIKILNKKGQQGWWRGEIYGRCGWFPANYVEEDYS [V48C], which abundance fitness is on record?
Answer: -0.194 ± 0.074

Question: With KYFGTAKARYDFCARDRSELSLKEGDIIKILNKKGQQGWWRGEIYGRMGWFPANYVEEDYS [V48M] as the variant, how does the abundance fitness read?
Answer: -0.312 ± 0.1

Question: With KYFGTAKARYDFCARDRSELSLKEGDIIKILNKKGQQGWWRGEIYGRSGWFPANYVEEDYS [V48S] as the variant, how does the abundance fitness read?
Answer: -0.062 ± 0.059

Question: Which abundance fitness does the source give for KYFGTAKARYDFCARDRSELSLKEGDIIKILNKKGQQGWWRGEIYGRHGWFPANYVEEDYS [V48H] here?
Answer: -0.405 ± 0.14

Question: Which abundance fitness does the source give for KYFGTAKARYDFCARDRSELSLKEGDIIKILNKKGQQGWWRGEIYGREGWFPANYVEEDYS [V48E] here?
Answer: -0.07 ± 0.05

Question: For KYFGTAKARYDFCARDRSELSLKEGDIIKILNKKGQQGWWRGEIYGRDGWFPANYVEEDYS [V48D], which abundance fitness is on record?
Answer: -0.499 ± 0.11

Question: For KYFGTAKARYDFCARDRSELSLKEGDIIKILNKKGQQGWWRGEIYGRWGWFPANYVEEDYS [V48W], which abundance fitness is on record?
Answer: -0.491 ± 0.076

Question: For KYFGTAKARYDFCARDRSELSLKEGDIIKILNKKGQQGWWRGEIYGRYGWFPANYVEEDYS [V48Y], which abundance fitness is on record?
Answer: -0.177 ± 0.12

Question: With KYFGTAKARYDFCARDRSELSLKEGDIIKILNKKGQQGWWRGEIYGRTGWFPANYVEEDYS [V48T] as the variant, how does the abundance fitness read?
Answer: 0.071 ± 0.069
